Laboratory results: patent US20050136044A1, “Butyrylcholinesterase variants that alter the activity of chemotherapeutic agents” (priority 2003, published 2005)
Positions count from the first letter of the chain named. Names and notes keep the numbering of the source. Values joined by “and” are separate entries in the source; they are usually repeats but may differ in a detail not shown here. Equal entries are not always repeated. “Also recorded” adds a separate entry of the source. Where two headings read alike, the source gives them in different places.

What was measured:
[1] = CPT-11 conversion to SN-38, fluorescent HPLC detection, conditioned media of transiently expressed BChE variants; type: biochemical; conditions: for Fold improvement in CPT-11 conversion: compared to wild-type butyrylcholinesterase, conditioned media exposed to 20 mM CPT-11 for 72 hours at 37° C., SN-38 by HPLC, conservative values; for CPT-11 conversion to SN-38 (SN-38 formation by HPLC), in words: conditioned media, 20 mM CPT-11, 72 hours, 37° C., versus mock / wild-type
Experimental: Butyrylcholinesterase variants were assayed for CPT-11 conversion activity using fluorescent High Performance Liquid Chromotography (HPLC) detection of SN-38 formation as described in Dodds and Rivory, Mol. Pharmacol. 56: 1346-1353 (1999), which is incorporated herein by reference. Briefly, conditioned media from transiently expressed BChE variants were exposed to 20 mM CPT-11 for 72 hours at 37° C. and analyzed by HPLC for SN-38 formation (peak at about 4 minutes column retention time).

[2] = cited from earlier work; for Km: Humerickhouse et al. 2000, read-out: Km (CPT-11 conversion)
[3] = system: SW48 colon carcinoma cells; test: MTT cytotoxicity assay of CPT-11 activated by BChE variants; conditions: CPT-11 at 4 mM incubated 72 hours with enzyme, cells exposed at 0.5 mM for 72 hours, versus mock
Experimental: Clinically relevant concentrations of CPT-11 (0.5-10 mM) were exposed to BChE variants for 24-72 hours at 37° C. Briefly, CPT-11 at 4 mM was incubated for 72 hours with expressed wild-type BChE, the 6-6 variant, or F227A/L286Q variant. SW48 colon carcinoma cells were exposed to the activated CPT-11 at a concentration of 0.5 mM for 72 hours and cell viability measured by the MTT method. The MTT (3-(4,5-dimethylthiazolyl-2)-2,5-diphenyltetrazolium bromide) assay is commercially available and can be used to measure cell viability based on the ability of a cell to reduce a redox sensitive dye. Note the 6-6 variant is a quadruple mutant referenced as A328W/Y332M/S287G/F227A (SEQ ID NO: 16) in the nomenclature used throughout to describe variants. The 6-6 variant contains the following codons at variant positions: GCG encodes alanine at amino acid position 227, GGT encodes glycine at amino acid position 287, ATG encodes methionine at amino acid position 332, and TGG encodes tryptophane at amino acid position 328.

[4] = cited from earlier work
CD20 = target: T1, CD20 (human, UniProt P11836 1-297); test: method not stated
T1 construct: whole, on cells; also called CD20 cell surface antigen; CD20 on SKW 6.4 human B lymphoma cells
T1 sequence (looked up): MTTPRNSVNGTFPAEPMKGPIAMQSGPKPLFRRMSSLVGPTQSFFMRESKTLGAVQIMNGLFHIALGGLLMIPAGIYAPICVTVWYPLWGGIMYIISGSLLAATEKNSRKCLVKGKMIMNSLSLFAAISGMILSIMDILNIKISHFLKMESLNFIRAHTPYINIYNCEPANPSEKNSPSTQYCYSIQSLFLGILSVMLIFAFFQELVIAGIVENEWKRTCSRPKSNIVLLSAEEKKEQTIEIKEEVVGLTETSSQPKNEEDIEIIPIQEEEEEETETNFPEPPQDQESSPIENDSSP

[5] = BChE-mediated CPT-11 hydrolysis, SN38 quantitated by reverse-phase HPLC with fluorescence detection; Km by Hofstee plot; type: biochemical; conditions: for increase in CPT-11 hydrolysis over wild-type BChE: SN38 peak AUC, wild type 20 μg, BChE.4-1 0.05 μg; for improvement in the Km for CPT-11: versus wild-type / native serum BChE
Experimental: BChE plasmid variants were expressed transiently in the human embryonic kidney cell line 293T and assayed for activity at 72 hours post-transfection. Primary screening of variants was performed by indirect measurement of enzymatic activation of CPT-11 (FIG. 2) in SW48 colon carcinoma cell cytotoxicity assays. […] Functional hits identified in these assays were characterized by sequence analysis of the corresponding DNA from the original preps. […] Enzyme was incubated at 37° C. for 24 hours with CPT-11 over a range of concentrations from 1-80 μM. […] Velocity (v) is in light absorbance units at 540 nm. Substrate concentration [s] is μM CPT-11.
Samples were acidified and resolved by reverse-phase HPLC on a NovaPak C18 column to separate SN38 from unactivated CPT-11. SN38 peak area under the curve (AUC) was used to compare CPT-11 activation by the wild-type enzyme to the optimized BChE.4-1 variant.

F227A/L286S
Fold improvement in CPT-11 conversion [1]: >50 fold | Fold improvement in CPT-11 conversion ([1]; listed as F227A/L268S): ≥ 50 fold | CPT-11 conversion to SN-38 (SN-38 formation by HPLC), in words [1]: significant conversion; also recorded: increased CPT-11 conversion to SN-38

hCE-1
Km [2]: 43 µM

F227A/L286Q
Fold improvement in CPT-11 conversion [1]: >10 fold | CPT-11 conversion to SN-38 (SN-38 formation by HPLC), in words [1]: increased CPT-11 conversion to SN-38 | CPT-11 mediated cytotoxicity in SW48 colon carcinoma cells [3]: increased tumor cell cytotoxicity

F227A/L286H
Fold improvement in CPT-11 conversion [1]: >35 fold | CPT-11 conversion to SN-38 (SN-38 formation by HPLC), in words [1]: increased CPT-11 conversion to SN-38

CCc1c2c(nc3ccc(OC(=O)N4CCC(N5CCCCC5)CC4)cc13)-c1cc3c(c(=O)n1C2)COC(=O)[C@]3(O)CC [CPT-11, 7-ethyl-10-[4-(1-piperidino)-1-piperidine]carbonyloxycamptothecin]
plasma concentrations of CPT-11 ([4]; patients treated with 200 mg/m2 CPT-11, for at least 24 hours, Ducreux et al. 2003): above 0.1 μM | plasma peak concentration versus dose ([4]; single agent at up to 500 mg/m^2): dose-proportional

B1: AME133 Fab (humanized anti-CD20 with fully human germline framework regions) (Fab, V domains shown)
VH: EVQLVQSGAEVKKPGESLKISCKGSGRTFTSYNMHWVRQMPGKGLEWMGAIYPLTGDTSYNQKSKLQVTISADKSISTAYLQWSSLKASDTAMYYCARSTYVGGDWQFDVWGKGTTVTVSS
VL: EIVLTQSPGTLSLSPGERATLSCRASSSVPYIHWYQQKPGQAPRLLIYATSALASGIPDRFSGSGSGTDFTLTISRLEPEDFAVYYCQQWLSNPPTFGQGTKLEIKR
notes: also called monovalent Fab
Kd (CD20): 1 nM

B2: hCE-2 (protein, UniProt O00748 27-559, looked up)
Cocaine esterase: QDSASPIRTTHTGQVLGSLVHVKGANAGVQTFLGIPFAKPPLGPLRFAPPEPPESWSGVRDGTTHPAMCLQDLTAVESEFLSQFNMTFPSDSMSEDCLYLSIYTPAHSHEGSNLPVMVWIHGGALVFGMASLYDGSMLAALENVVVVIIQYRLGVLGFFSTGDKHATGNWGYLDQVAALRWVQQNIAHFGGNPDRVTIFGESAGGTSVSSLVVSPISQGLFHGAIMESGVALLPGLIASSADVISTVVANLSACDQVDSEALVGCLRGKSKEEILAINKPFKMIPGVVDGVFLPRHPQELLASADFQPVPSIVGVNNNEFGWLIPKVMRIYDTQKEMDREASQAALQKMLTLLMLPPTFGDLLREEYIGDNGDPQTLQAQFQEMMADSMFVIPALQVAHFQCSRAPVYFYEFQHQPSWLKNIRPPHMKADHGDELPFVFRSFFGGNYIKFTEEEEQLSRKMMKYWANFARNGNPNGEGLPHWPLFDQEEQYLQLNLQPAVGRALKAHRLQFWKKALPQKIQELEEPEERHTEL
catalytic efficiency relative to hCE-1 ([2]; CPT-11 conversion): 60 fold | Km [2]: 3.4 µM | rate of conversion of CPT-11 to SN38 relative to hCE-1 ([2]; at pharmacologically relevant concentrations of the drug (~1-10 μM)): 25-30 fold

B3: F227A (protein)
chain: EDDIIIATKNGKVRGMNLTVFGGTVTAFLGIPYAQPPLGRLRFKKPQSLTKWSDIWNATKYANSCCQNIDQSFPGFHGSEMWNPNTDLSEDCLYLNVWIPAPKPKNATVLIWIYGGGFQTGTSSLHVYDGKFLARVERVIVVSMNYRVGALGFLALPGNPEAPGNMGLFDQQLALQWVQKNIAAFGGNPKSVTLFGESAGAASVSLHLLSPGSHSLFTRAILQSGSXNAPWAVTSLYEARNRTLNLAKLTGCSRENETEIIKCLRNKDPQEILLNEAFVVPYGTPLSVNFGPTVDGDFLTDMPDILLELGQFKKTQILVGVNKDEGTAFLVYGAPGFSKDNNSIITRKEFQEGLKIFFPGVSEFGKESILFHYTDWVDDQRPENYREALGDVVGDYNFICPALEFTKKFSEWGNNAFFYYFEHRSSKLPWPEWMGVMHGYEIEFVFGLPLERRDNYTKAEEILSRSIVKRWANFAKYGNPNETQNNSTSWPVFKSTEQKYLTLNTESTRIMTKLRAQQCRFWTSFFPKVLEMTGNIDEAEWEWKAGFHRWNNYMMDWKNQFNDYTSKKESCVGL
modifications: synthetic butyrylcholinesterase variant; VARIANT 227: Xaa = Ala
CPT-11 conversion to SN-38 (SN-38 formation by HPLC), in words [1]: produced a small amount of SN-38; also recorded: increased CPT-11 conversion to SN-38

B4: F227A/T284A (protein)
chain: B3 chain with T284X
modifications: synthetic butyrylcholinesterase variant; VARIANT 227: Xaa = Ala; VARIANT 284: Xaa = Ala
Fold improvement in CPT-11 conversion [1]: >7 fold | CPT-11 conversion to SN-38 (SN-38 formation by HPLC), in words [1]: increased CPT-11 conversion to SN-38

B5: 6-6 variant (protein)
chain: B3 chain with X227A, S287G, A328W, Y332M
modifications: synthetic butyrylcholinesterase variant
CPT-11 mediated cytotoxicity in SW48 colon carcinoma cells [3]: increased tumor cell cytotoxicity

B6: 4-1 variant (protein)
chain: B3 chain with H77F, P285N, V331A
modifications: synthetic butyrylcholinesterase variant; VARIANT 227: Xaa = Ala
Km ([5]; 37° C., 24 hours, CPT-11 1-80 μM, Hofstee plot): ~7 µM and 6.9 µM | increase in CPT-11 hydrolysis over wild-type BChE ([5]; 37° C., 24 hours): > 3000 fold | increase in CPT-11 hydrolysis over wild-type BChE ([5]; 37° C., 24 hours, listed as H77F, F227A, P285N, V331A): at least a three thousand-fold | increase in CPT-11 hydrolysis over wild-type BChE ([5]; 37° C., 24 hours, listed as SEQ ID NO: 180): at least a three thousand-fold | improvement in the Km for CPT-11 [5]: 5-6 fold | improvement in the Km for CPT-11 ([5]; listed as BChE variant 4-1): 5-6 fold and > 5 fold

B7: F227A/L286W (protein)
chain: B3 chain with X227A, L286W
modifications: synthetic butyrylcholinesterase variant
Fold improvement in CPT-11 conversion [1]: >42 fold | CPT-11 conversion to SN-38 (SN-38 formation by HPLC), in words [1]: increased CPT-11 conversion to SN-38

B8: F227A/S287P (protein)
chain: B3 chain with X227A, S287X
modifications: synthetic butyrylcholinesterase variant; VARIANT 227: Xaa = Ala; VARIANT 287: Xaa = Pr0
Fold improvement in CPT-11 conversion [1]: >6 fold | CPT-11 conversion to SN-38 (SN-38 formation by HPLC), in words [1]: increased CPT-11 conversion to SN-38
